For assay [1], the target named is T1, human MICA*008 alpha 3 domain, untagged (crystallography) (human, UniProt Q29983 204-297).
T1 construct: Made in T. ni cells with EndoH and kifunensine; N-terminal His6 tag removed with thrombin; also called MICA*008 α3 domain
T1 chain: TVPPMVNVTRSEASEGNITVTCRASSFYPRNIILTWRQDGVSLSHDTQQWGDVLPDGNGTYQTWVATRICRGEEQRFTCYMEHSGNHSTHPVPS
In words: complex purified by size exclusion, X-ray structure.

Assay [2] concerns the target T2, MICA*008 on MEL-JUSO cells (human, UniProt Q29983 24-317).
T2 chain: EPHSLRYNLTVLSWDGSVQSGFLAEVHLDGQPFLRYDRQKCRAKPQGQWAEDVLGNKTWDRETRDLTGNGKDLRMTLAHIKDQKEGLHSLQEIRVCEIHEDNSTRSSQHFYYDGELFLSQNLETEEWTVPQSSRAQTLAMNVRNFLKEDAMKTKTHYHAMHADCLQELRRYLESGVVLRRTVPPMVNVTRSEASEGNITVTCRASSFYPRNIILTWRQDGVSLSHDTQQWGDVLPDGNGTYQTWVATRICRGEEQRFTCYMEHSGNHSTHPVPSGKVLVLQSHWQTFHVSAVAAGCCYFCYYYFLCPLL
In words: cell-based or functional assay.

Assay [3] has as its target T3, MICA*004 on HCC1534 cells (human, UniProt Q29983 24-383). In words: cell-based or functional assay.
The target in assay [4] is MICB*005 on HCC1534 cells (human). In words: cell-based or functional assay.
In a further assay the target is MICA*002 on PANC-1 cells (human, UniProt Q29983 24-383). Briefly: cell-based or functional assay.
The target of assay [5] is T2, MICA*008 on MEL-JUSO cells. In words: cell-based or functional assay.
Assay [6] concerns the target T3, MICA*004 on HCC1534 cells. In words: cell-based or functional assay. The source holds these as a separate data set.
Assay [7] concerns the target MICB*005 on HCC1534 cells (human). Briefly: cell-based or functional assay. The source holds these as a separate data set.
In assay [8] the target is T4, huMICA*002 alpha 3-his (human).
T4 construct: whole construct entry: GS, alpha 3 domain, GNS, His8; also called MICA002.His; MICA*002 alpha3 construct
T4 chain: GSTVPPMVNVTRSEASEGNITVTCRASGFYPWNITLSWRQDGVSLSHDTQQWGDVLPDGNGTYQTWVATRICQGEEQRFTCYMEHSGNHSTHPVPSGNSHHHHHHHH
Briefly: SPR, Biacore 8K, antibody on Protein A chip. On the technique in general: In SPR one partner is held on a chip, and binding of the other changes the refractive index at the surface.

For assay [9], the target named is T5, huMICA*004 alpha 3-his (human).
T5 construct: whole construct entry: GS, alpha 3 domain, GNS, His8; also called MICA004.His; MICA*004 alpha3 construct
T5 chain: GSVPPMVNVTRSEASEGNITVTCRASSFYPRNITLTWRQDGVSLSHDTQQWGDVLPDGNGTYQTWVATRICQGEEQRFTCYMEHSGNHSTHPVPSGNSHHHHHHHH
In words: SPR, Biacore 8K, antibody on Protein A chip.

The target in assay [10] is T6, huMICA*008 alpha 3-his (human).
T6 construct: whole construct entry: GS, alpha 3 domain (Thr204-Ser297), GNS, His8; also the construct of the FPOP experiment; also called MICA008.His; MICA*008 alpha3 construct
T6 chain: T4 chain with G28S, W32R, T35I, S37T, Q73R
Briefly: SPR, Biacore 8K, antibody on Protein A chip.

For assay [11], the target named is T7, huMICB*005 alpha 3-his (human).
T7 construct: whole construct entry: GS, alpha 3 domain, GNS, His8; also called MICB005.His; MICB*005 alpha3 construct
T7 chain: T4 chain with R12C, A15V, G28S, W32R, S37T, D48N, C72R, S90G
Briefly: SPR, Biacore 8K, antibody on Protein A chip.

In assay [12] the target is T4, huMICA*002 alpha 3-his. Briefly: 'Affinity (nM)' row of Table 17; method not stated.
Assay [13] deals with T5, huMICA*004 alpha 3-his. Briefly: 'Affinity (nM)' row of Table 17; method not stated.
Assay [14] addresses T7, huMICB*005 alpha 3-his. Briefly: 'Affinity (nM)' row of Table 17; method not stated.
Assay [15] has as its target T6, huMICA*008 alpha 3-his. In words: 'Affinity (nM)' row of Table 17; method not stated; MICA*008 allele (column of the MEL-JUSO shedding assay).
Assay [16] deals with T8, MICB005.His (human MICB*005 alpha 3 domain, His tagged) (human).
T8 construct: also called huMICB*005 alpha 3-his
T8 chain: T4 chain with R12C, A15V, G28S, W32R, S37T, D48N, C72R, S90G
In words: ELISA, coated antigen. (An ELISA detects its analyte on a solid surface through an enzyme-linked reagent.)

For assay [17], the target named is T9, MICA.008.a3.R202-S297.R202N mIgG2a.Glyco11 (human; mouse, UniProt Q29983 203-297, engineered N-linked glycosylation site R202N).
T9 construct: not shown: murine IgG2a Fc
T9 chain: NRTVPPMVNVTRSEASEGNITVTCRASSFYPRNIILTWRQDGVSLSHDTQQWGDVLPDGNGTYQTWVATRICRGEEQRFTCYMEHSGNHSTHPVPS
Briefly: ELISA, coated variant.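 Also: ELISA with plates coated at 2 ug/ml with MICA*008 alpha 3 glycosylation variants as murine IgG2a Fc fusions, antibody binding detected by HRP anti-human IgG Fc and TMB absorbance.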

Assay [18] deals with T10, MICA.008.a3.T204-S297.E215N.mIgG2a.Glyco12 (human; mouse, UniProt Q29983 204-297, engineered N-linked glycosylation site E215N).
T10 construct: not shown: murine IgG2a Fc
T10 chain: T1 chain with E12N
In words: ELISA, coated variant.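 Also: ELISA with plates coated at 2 ug/ml with MICA*008 alpha 3 glycosylation variants as murine IgG2a Fc fusions, antibody binding detected by HRP anti-human IgG Fc and TMB absorbance.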

The target of assay [19] is T11, MICA.008.a3.T204-S297.I236T.mIgG2a.Glyco13 (human; mouse, UniProt Q29983 204-297, engineered N-linked glycosylation site created by I236T).
T11 construct: not shown: murine IgG2a Fc
T11 chain: T1 chain with I33T
In words: ELISA, coated variant.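 Also: ELISA with plates coated at 2 ug/ml with MICA*008 alpha 3 glycosylation variants as murine IgG2a Fc fusions, antibody binding detected by HRP anti-human IgG Fc and TMB absorbance.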

For assay [20], the target named is T12, MICA.008.a3.T204-S297.G243N.mIgG2a.Glyco14 (human; mouse, UniProt Q29983 204-297, engineered N-linked glycosylation site G243N).
T12 construct: not shown: murine IgG2a Fc
T12 chain: T1 chain with G40N
In words: ELISA, coated variant.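 Also: ELISA with plates coated at 2 ug/ml with MICA*008 alpha 3 glycosylation variants as murine IgG2a Fc fusions, antibody binding detected by HRP anti-human IgG Fc and TMB absorbance.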

Assay [21] concerns the target T13, MICA.008.a3.T204-S297.R279N.mIgG2a.Glyco16 (human; mouse, UniProt Q29983 204-297, engineered N-linked glycosylation site R279N).
T13 construct: not shown: murine IgG2a Fc
T13 chain: T1 chain with R76N
In words: ELISA, coated variant.

The target in assay [22] is T14, MICA.008.a3.T204-S297.C-terminal insert of N298.G299.S300.mIgG2a.Glyco17 (human; mouse, UniProt Q29983 204-297, engineered N-linked glycosylation site at inserted N298).
T14 construct: not shown: murine IgG2a Fc
T14 chain: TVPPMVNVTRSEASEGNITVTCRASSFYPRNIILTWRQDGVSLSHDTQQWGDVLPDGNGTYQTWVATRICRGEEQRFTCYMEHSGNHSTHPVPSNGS
Briefly: ELISA, coated variant.

Assay [23] concerns the target T15, MICA008.His (human MICA*008 alpha 3 domain, His tagged) (human).
T15 construct: Also used for FPOP (expressed in CHO); also called huMICA*008 alpha 3-his; MICA*008 a3
T15 chain: T4 chain with G28S, W32R, T35I, S37T, Q73R
In words: SPR, antibody captured.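 Also: SPR with antibody held by surface-bound anti-Fc while His-tagged alpha three domains flow over, Kd derived by fitting a one-to-one binding model to sensograms.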

For assay [24], the target named is T16, MICA002.His (human MICA*002 alpha 3 domain, His tagged) (human).
T16 construct: also called huMICA*002 alpha 3-his
T16 chain: T4 chain
Briefly: SPR, antibody captured.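 Also: SPR with antibody held by surface-bound anti-Fc while His-tagged alpha three domains flow over, Kd derived by fitting a one-to-one binding model to sensograms.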

In assay [25] the target is T17, MICA004.His (human MICA*004 alpha 3 domain, His tagged) (human).
T17 construct: also called huMICA*004 alpha 3-his
T17 chain: T5 chain
In words: SPR, antibody captured.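 Also: SPR with antibody held by surface-bound anti-Fc while His-tagged alpha three domains flow over, Kd derived by fitting a one-to-one binding model to sensograms.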

In assay [26] the target is T18, MICA*008 on MEL-JUSO cells (human, UniProt Q29983 24-317).
T18 chain: T2 chain
In words: cell-based or functional assay.

Assay [27] has as its target MICA*004 on HCC1534 cells (human, UniProt Q29983 24-383). In words: cell-based or functional assay. This is another data set of the same source.
In assay [28] the target is T19, human MICA*008 C273S alpha 3 domain, untagged (crystallography) (human, UniProt Q29983 204-297).
T19 construct: C273S removes the unpaired cysteine; made as the wild-type alpha 3 domain; also called MICA*008 C273S α3 domain
T19 chain: T1 chain with C70S
In words: complex purified by size exclusion, X-ray structure. For orientation: In gel filtration, larger molecules generally elute earlier.

Changes are numbered by the printed parent chain.

The source of these data is patent US20200055939A1 (Genentech, published 2020).

A word on the % Inhibition: it is the drop in the measured response relative to a control, in per cent. Low readings indicate a response near the control, high ones a response far below the control. The term Kd denotes the equilibrium constant for the complex coming apart.

B1: 13A9 Fab (Fab, V domains shown)
VH: QVQLQQSGAELVRPGTSVKVSCKASGYAFTNYLIEWVKQRPGQGLEWIGAINPGSGATNYNEKFKDKARLTADKSSNTAYLQFSSLTSDDSAVYFCARFLGNYFDNWGQGATLTVSS
VL: DIQMTQSPASLSASVGETVTITCRASGNIHSYLAWYQQKQGKSPQLLVYYAETLADGVPSRFSGRGSGTQYSLKINSLQPEDFGSYFCQQFWTTPYTFGGGTKVEIK
notes: Expressed in E. coli as chimera of murine variable and human constant domains; not shown: human IgG1 CH1 constant domain; human kappa CL constant domain
In the case of B1, in assay [1], the binding result is reported as “binds”.

B2: 1D5 (antibody, V domains shown)
VH: EIQLQQSGPELVKPGASVKVSCKASGYAFTSQNIYWVKQSHGKSLEWIGYIEPYNVVPMYNPKFKGKATLTVDKSSSSAYIHLNSLTSEDSAIYYCARSGSSNFDYWGQGTTLTVSS
VL: EIILTQSPTTMAASPGEKITITCSASSSISSHYLHWYQQKSGFSPKLLIYRTSNLASGVPARFSGSGSGTSYSLTIGTMEAEDVATYYCQQGSSLPLTFGAGTKVEIK
notes: mouse variable domains; also called anti-MIC 1D5
Turning to B2, the “IC50 (mg/mL), cell shedding assay” value was determined as 0.00823 mg/mL in assay [2], 0.0247 mg/mL in assay [3], 0.0293 mg/mL in assay [4] and 0.0291 mg/mL with MICA*002 on PANC-1 cells. In addition, the “Max inhibition, cell shedding assay” value in assay [2] was 81%; in assay [3], 70%; in assay [4], 52%; in the assay with MICA*002 on PANC-1 cells, 53%. Also, the “% Inhibition” value came out at 69% in [5], 52% in assay [6] and 49% in [7]. Moreover, the Kd was determined as 0.83 nM with huMICA*002 alpha 3-his [8]; 0.63 nM with huMICA*004 alpha 3-his [9]; 0.61 nM with huMICA*008 alpha 3-his [10]; 0.95 nM with huMICB*005 alpha 3-his [11]; 0.82 nM with huMICA*002 alpha 3-his [12]; 0.56 nM in the assay with huMICA*004 alpha 3-his [13]. The Kd came to 2.28 nM in the assay with huMICB*005 alpha 3-his [14] and 0.54 nM in the assay with huMICA*008 alpha 3-his [15].

B3: 6E12.5 (antibody, V domains shown)
VH: EVQLVESGGGLVKPGGSLKLSCAASGFTFSDYYMYWVRQTPEKRLEWVATISDGITYTYYSDSVRGRFTISRDNAENTLYLQMSSLKSEDTAMYYCSKGGGSTARGALDFWGQGTSVTVSS
VL: DIQMNQSPSSLSASLGDTITITCHASQNIHVWLSWYQQKPGNIPKLLIYGASHLHTGVPSRFSGRGSGTGFTLTISSLQPEDIATYYCLQGQSYPLTFGSGTKVEIK
notes: Mouse hybridoma antibody; constant regions differ by assay
B3: the binding result in [16], in assay [17], in [18], in assay [19], in assay [20] and in assay [21] was “binds” in each case. Moreover, the binding result in [22] is reported as “binds”. Moreover, the Kd worked out at 15.1 nM in [23], 4.5 nM in [24] and 3 nM in assay [25]. Also, the “% max inhibition of shedding” value in assay [26] was found to be 28%; in assay [27] it was 37%. Moreover, the “EC50 of shedding inhibition” value in assay [26] turned out to be 0.074 µg/mL; in [27], 0.329 µg/mL.

B4: 6E1.1.12 Fab (Fab, V domains shown)
VH: QGQMQQSGAELVKPGASVKLSCKTSGFTFSDNYISWLKQKPGQSLEWIAWIYAGTGGSSYNQKFRDKAQLTVDTSSRTAYMQLSSLTTEDSAIYYCARHDYYGTSGAWFAYWGRGTLVTVSA
VL: DVLMTQTPLSLPVSLGDQASISCRSSQHIVHSNENTYLEWYLQKPGQSPKLLIYKVSNRFSGVPDRFSGSGSGTDFTLKISRVEAEDLGVYYCFQGSHVPWTFGGGTKVEIK
notes: Expressed in E. coli; the fraction with glutamine (not pyroglutamate) at the heavy chain N-terminus was crystallised; also called 6E1 Fab; not shown: human IgG1 CH1 constant domain; human kappa CL constant domain
As to B4, the binding result in assay [28] is given as “binds”.
